Patent US20190169241A1 (BOARD OF TRUSTEES OF THE UNIVERSITY OF ILLINOIS, published 2019)
No end group written: not given here.

Experiments:
[1] = molecular target: T1, vascular endothelial growth factor receptor 2 (VEGFR2), endogenous, from HUVEC lysates (human, UniProt P35968 20-1356); assay: pull-down of endogenous VEGFR2 from HUVEC lysate with the recombinant truncation on beads, western blot with anti-VEGFR2 antibody
T1 construct: Endogenous receptor from cell lysate, detected by western blot with anti-VEGFR2 antibody or by mass spectrometry; also called Flk-1
T1 sequence (P35968 20-1356 limits assumed): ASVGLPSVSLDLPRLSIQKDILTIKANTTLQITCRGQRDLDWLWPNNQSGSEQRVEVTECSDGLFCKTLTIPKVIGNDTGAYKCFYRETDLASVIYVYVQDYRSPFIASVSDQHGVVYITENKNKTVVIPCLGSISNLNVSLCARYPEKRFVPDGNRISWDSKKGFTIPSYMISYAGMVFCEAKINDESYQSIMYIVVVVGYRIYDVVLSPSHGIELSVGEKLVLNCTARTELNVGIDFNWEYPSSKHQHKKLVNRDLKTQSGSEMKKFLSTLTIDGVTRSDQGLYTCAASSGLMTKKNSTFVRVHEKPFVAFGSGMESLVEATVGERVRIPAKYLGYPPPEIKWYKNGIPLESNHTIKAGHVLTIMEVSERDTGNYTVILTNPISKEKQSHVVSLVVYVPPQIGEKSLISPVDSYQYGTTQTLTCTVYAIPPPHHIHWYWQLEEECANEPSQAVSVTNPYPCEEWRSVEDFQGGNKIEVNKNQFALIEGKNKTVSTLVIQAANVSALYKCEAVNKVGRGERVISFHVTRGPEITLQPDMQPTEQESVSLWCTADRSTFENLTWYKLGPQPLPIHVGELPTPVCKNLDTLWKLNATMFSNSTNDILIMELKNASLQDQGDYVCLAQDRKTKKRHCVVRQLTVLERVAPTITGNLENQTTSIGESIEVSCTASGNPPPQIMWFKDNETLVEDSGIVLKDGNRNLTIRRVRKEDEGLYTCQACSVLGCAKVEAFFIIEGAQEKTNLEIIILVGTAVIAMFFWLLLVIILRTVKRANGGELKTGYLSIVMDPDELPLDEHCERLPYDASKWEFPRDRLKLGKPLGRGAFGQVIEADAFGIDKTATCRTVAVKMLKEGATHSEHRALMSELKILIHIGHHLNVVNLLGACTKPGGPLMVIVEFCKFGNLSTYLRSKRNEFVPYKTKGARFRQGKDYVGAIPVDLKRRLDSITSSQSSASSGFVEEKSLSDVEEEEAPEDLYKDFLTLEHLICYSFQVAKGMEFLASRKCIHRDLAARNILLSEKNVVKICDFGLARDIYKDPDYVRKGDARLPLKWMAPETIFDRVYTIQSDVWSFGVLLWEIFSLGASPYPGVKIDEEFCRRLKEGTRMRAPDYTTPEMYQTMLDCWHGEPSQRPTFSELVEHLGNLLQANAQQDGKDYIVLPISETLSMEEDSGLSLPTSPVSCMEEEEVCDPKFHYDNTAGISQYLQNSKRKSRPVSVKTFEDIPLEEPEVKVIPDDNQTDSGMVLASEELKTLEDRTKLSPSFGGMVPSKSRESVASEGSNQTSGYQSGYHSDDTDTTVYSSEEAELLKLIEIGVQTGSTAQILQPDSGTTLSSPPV

Tie2 = Tie2 (UniProt Q02763 23-1124, limits assumed); assay: pull-down with peptide on streptavidin beads, mass spec analysis
Par1 = molecular target: T2, Par1 (UniProt P25116 22-425, limits assumed); assay: as above
T2 sequence (looked up): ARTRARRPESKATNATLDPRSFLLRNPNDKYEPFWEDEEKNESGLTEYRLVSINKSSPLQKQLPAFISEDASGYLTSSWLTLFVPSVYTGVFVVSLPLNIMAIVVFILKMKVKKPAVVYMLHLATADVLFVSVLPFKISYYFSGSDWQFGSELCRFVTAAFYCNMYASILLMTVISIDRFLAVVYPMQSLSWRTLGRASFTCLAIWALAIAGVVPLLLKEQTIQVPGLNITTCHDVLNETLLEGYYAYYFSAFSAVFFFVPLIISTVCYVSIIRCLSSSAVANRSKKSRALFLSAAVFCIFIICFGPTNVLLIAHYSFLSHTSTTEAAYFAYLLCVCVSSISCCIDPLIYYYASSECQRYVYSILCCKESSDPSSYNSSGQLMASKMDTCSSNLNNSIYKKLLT

[2] = molecular target: T3, VEGFR2, recombinant cytosolic domain (Fisher Scientific) (UniProt P35968 789-1356, limits assumed); assay: SPR (BIACORE), peptide on avidin-coated chip, recombinant cytosolic domain as analyte
T3 construct: domain: cytosolic domain; Analyte in the BIACORE experiment
T3 sequence (P35968 789-1356 limits assumed): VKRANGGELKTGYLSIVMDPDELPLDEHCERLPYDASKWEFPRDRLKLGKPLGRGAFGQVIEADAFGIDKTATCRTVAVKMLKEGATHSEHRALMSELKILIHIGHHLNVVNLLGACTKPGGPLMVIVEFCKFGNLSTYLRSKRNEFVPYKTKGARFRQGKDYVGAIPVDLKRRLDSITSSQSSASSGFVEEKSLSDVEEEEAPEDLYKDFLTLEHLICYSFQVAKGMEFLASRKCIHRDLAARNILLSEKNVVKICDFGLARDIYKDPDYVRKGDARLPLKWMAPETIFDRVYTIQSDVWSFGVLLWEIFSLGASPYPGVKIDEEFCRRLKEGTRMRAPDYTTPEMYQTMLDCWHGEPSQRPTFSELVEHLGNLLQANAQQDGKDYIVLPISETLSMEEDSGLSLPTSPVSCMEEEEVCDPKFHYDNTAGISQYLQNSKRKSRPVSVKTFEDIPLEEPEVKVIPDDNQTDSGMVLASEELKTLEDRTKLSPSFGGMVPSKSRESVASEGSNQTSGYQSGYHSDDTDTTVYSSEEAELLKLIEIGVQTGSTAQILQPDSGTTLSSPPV

[3] = molecular target: T1, vascular endothelial growth factor …; assay: pull-down from HUVEC lysate with recombinant protein on beads, anti-VEGFR2 western blot
From the text: The DUFs were identified from amino acid sequence similarity on the Pfam database. It has been previously shown that both domains of DUF3694 directly bind recombinant VEGFR2 in vitro (Yamada, et al. (2007) Biochemistry 46:10039-45). […] DUF2 was divided into 3 parts, DUF2A (residues 1111-1167), DUF2B (residues 1168-1216), and DUF2C (residues 1217-1281) and each part was expressed as a recombinant protein in bacteria. VEGFR2 was abundantly expressed in HUVECs; thus, cell lysate from HUVECs was incubated with these recombinant proteins on beads, and VEGFR2 binding was determined using the anti-VEGFR2 antibody.

[4] = molecular target: T1, vascular endothelial growth factor …; assay: pull-down from HUVEC lysates, peptide on streptavidin beads
[5] = molecular target: PDGFRβ, endogenous, found in the pull-down by mass spectrometry (UniProt P09619 33-1106, limits assumed); assay: pull-down with peptide on streptavidin beads, mass spec analysis
Chain of PDGFRβ, endogenous, found in the pull-down by mass spectrometry (P09619 33-1106 limits assumed): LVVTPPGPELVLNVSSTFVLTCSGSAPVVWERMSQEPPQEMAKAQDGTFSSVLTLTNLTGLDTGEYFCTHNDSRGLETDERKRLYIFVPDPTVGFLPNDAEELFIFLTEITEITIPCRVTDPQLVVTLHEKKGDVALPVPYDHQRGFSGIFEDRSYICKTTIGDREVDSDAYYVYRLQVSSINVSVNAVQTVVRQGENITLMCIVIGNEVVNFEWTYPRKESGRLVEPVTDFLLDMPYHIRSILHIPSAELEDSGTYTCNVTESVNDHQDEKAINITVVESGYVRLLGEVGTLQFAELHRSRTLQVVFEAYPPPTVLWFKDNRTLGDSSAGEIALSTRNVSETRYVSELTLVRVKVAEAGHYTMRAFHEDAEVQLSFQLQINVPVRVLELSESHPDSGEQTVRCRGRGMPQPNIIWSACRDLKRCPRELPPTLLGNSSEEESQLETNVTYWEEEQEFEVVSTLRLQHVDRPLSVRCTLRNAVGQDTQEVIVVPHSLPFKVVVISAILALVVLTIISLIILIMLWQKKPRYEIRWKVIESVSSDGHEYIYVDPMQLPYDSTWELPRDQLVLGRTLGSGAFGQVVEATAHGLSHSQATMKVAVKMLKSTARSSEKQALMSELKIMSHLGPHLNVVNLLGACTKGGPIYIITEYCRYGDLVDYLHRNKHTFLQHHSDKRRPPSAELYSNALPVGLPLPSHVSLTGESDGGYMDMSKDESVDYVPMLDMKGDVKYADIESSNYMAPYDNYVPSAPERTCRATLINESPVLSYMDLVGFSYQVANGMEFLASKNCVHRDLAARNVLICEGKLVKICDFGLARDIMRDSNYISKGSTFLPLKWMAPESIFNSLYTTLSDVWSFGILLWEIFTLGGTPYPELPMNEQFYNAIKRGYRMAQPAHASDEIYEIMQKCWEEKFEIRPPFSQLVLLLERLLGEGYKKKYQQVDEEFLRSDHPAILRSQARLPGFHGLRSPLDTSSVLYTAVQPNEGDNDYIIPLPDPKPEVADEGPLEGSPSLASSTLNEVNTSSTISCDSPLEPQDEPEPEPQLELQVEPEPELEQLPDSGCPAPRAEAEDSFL

[6] = molecular target: EGFR, endogenous, found in the pull-down by mass spectrometry (UniProt P00533 25-1210, limits assumed); assay: as above
[7] = molecular target: PDGFRα, endogenous, found in the pull-down by mass spectrometry (UniProt P16234 24-1089, limits assumed); assay: as above
Chain of PDGFRα, endogenous, found in the pull-down by mass spectrometry (P16234 24-1089 limits assumed): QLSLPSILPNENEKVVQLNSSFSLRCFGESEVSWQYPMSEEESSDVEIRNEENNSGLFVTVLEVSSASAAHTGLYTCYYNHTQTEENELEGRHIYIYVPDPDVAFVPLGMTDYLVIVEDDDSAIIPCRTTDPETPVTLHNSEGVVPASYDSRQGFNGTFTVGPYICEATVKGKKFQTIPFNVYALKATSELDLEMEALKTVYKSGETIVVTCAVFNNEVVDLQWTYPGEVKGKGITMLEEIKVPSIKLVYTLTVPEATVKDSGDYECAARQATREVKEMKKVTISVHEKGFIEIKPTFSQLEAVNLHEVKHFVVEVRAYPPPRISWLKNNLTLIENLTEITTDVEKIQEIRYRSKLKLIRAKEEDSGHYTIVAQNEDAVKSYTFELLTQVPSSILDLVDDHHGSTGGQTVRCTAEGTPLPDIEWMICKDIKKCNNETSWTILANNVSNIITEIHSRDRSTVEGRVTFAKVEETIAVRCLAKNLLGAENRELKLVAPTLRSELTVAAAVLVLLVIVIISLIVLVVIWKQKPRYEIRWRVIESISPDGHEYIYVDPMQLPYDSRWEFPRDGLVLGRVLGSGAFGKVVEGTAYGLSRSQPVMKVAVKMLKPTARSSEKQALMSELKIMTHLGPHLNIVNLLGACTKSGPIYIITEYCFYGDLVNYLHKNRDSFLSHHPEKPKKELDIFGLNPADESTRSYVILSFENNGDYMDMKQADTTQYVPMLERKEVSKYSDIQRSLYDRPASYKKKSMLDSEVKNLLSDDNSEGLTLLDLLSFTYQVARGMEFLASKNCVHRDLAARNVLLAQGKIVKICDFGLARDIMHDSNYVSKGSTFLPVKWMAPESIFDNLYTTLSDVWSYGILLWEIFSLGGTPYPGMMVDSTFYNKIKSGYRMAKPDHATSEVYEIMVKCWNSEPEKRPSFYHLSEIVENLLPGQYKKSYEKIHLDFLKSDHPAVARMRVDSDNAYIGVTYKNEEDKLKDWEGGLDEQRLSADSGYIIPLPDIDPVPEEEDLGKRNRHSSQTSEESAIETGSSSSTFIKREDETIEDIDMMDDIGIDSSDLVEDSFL

B1: C1 (peptide, UniProt Q9NQT8 1202-1240, looked up)
single chain: GEEEEEFFELQIVKQHDGEVKAEASWDSAVHGCPQLSRG
notes: recombinant truncated mutant expressed in bacteria with His-tag and S-tag; the sheet prints only 'C1'; also called DUF2C1; DUF C1 (1202-1240 aa)
binding result [1]: no binding

B2: C4 (peptide, UniProt Q9NQT8 1226-1251, looked up)
single chain: SWDSAVHGCPQLSRGTPVDERLFLIV
notes: recombinant truncated mutant expressed in bacteria with His-tag and S-tag; the sheet prints only 'C4'; also called DUF2C4; DUF C4 (1226-1251 aa)
binding result [1]: no binding

B3: C7 (peptide, not shown: small tags and cut ends)
peptide: ADMQLVLRKRICVNVHGRQGF
notes: the sheet prints only 'C7'; also called DUF2C7; DUF C7 (1261-1281 aa)
binding result [1]: no binding

B4: Biotin-DUF2C5 peptide (synthetic, residues 1238-1260 of KIF13B with a biotin-tag) (peptide)
peptide: SRGTPVDERLFLIVRVTVQLSHP
modifications: also: biotin-tag (position not given here)
notes: Immobilised on streptavidin beads (pull-down, mass spectrometry) or on an avidin-coated BIACORE chip
binding result (Tie2): no binding | binding result (Par1): no binding | Kd [2]: 5.5 nM

B5: DUF2A (residues 1111-1167 of KIF13B), recombinant protein from bacteria (other, human, UniProt Q9NQT8 1111-1167, looked up)
chain: QKLVSKRDKTEDDADREAQLLEMRLTLTEERNAVMVPSAGSGIPGAPAEWTPVPGME
notes: range 1111-1167; not shown: His-tag and S-tag
binding result [3]: no binding

B6: CT23 (residues 1650 to 1672 of KIF13B), synthetic negative control peptide with a biotin-tag (peptide, UniProt Q9NQT8 1650-1672, looked up)
peptide: RVRASELRSFSRMLAGDPGCSPG
modifications: also: biotin-tag (position not given here)
notes: range 1650-1672
binding result [4]: no binding | binding result [5]: no binding | binding result [6]: no binding | binding result [7]: no binding | binding result [2]: no binding

B7: DUF2B (residues 1168-1216 of KIF13B), recombinant protein from bacteria (other, human, UniProt Q9NQT8 1168-1216, looked up)
chain: THIPVIFLDLNADDFSSQDNLDDPEAGGWDATLTGEEEEEFFELQIVKQ
notes: range 1168-1216; not shown: His-tag and S-tag
binding result [3]: no binding
